{"source": "paper PMC11737055", "molecular_target": "TDP-43 (UniProt Q921F2)", "assay": "anti-GFP co-IP, anti-RFP Western blot", "settings": "reference: GFP-FMRP wild type; sites S499", "data": [{"substance": "FMRP (from UniProt P35922) GFP-FMRP S499A", "values": [{"measurement": "binding against the reference", "value": "weaker"}]}]}
